In data set [1] the target is T1, [35S]methionine-labeled human A20 (in vitro translated) (UniProt P21580).
T1 sequence: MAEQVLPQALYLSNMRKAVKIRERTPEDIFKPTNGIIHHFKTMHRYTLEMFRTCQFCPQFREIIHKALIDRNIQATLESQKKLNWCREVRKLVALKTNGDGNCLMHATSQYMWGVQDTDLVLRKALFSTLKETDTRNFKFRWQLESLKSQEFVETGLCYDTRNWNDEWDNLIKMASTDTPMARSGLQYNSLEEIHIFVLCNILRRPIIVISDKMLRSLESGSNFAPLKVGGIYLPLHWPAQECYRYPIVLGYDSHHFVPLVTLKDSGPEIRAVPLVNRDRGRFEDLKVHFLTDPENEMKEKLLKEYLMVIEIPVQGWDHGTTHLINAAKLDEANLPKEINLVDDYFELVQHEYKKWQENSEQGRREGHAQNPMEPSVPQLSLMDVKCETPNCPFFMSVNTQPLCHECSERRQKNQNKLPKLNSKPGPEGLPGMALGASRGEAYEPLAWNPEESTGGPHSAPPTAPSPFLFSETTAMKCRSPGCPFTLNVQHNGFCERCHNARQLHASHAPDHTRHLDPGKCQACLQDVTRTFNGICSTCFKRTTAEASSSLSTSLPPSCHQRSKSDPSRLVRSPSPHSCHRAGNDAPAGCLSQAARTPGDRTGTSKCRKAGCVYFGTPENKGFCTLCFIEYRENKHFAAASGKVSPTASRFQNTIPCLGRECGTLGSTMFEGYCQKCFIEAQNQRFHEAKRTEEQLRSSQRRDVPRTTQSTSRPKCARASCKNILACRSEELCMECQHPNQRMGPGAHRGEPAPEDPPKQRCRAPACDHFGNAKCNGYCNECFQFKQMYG

The subject of data set [2] is T2, Ac-LSSR-AMC.
T2 sequence: LSSR

Data set [3] concerns T3, Z-GASR-CHO.
T3 sequence: GASR

The test system of data set [4] is T4, Z-LSSR-CHO.
T4 sequence: LSSR

MALT1C-gyraseB, sequence (chain, part): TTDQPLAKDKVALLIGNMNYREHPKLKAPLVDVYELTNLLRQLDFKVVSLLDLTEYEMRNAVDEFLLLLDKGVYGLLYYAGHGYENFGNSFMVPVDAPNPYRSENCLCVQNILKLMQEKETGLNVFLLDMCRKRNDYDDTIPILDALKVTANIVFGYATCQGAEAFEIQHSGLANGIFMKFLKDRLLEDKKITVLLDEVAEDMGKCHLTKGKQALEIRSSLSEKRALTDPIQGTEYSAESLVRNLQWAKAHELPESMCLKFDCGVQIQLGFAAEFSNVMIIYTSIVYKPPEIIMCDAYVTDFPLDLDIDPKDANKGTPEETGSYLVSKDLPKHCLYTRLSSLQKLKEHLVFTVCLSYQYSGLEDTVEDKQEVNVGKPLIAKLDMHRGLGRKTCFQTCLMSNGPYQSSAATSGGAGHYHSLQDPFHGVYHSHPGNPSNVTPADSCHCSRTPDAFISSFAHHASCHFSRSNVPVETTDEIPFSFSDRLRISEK

Consider MALT1C-gyraseB, for which the “in vitro cleavage of radiolabeled A20 (SDS-PAGE, autoradiography; 500, 1000 or 1500 nM enzyme)” value in data set [1] is reported as “In vitro incubation of radiolabeled A20 with recombinant MALT1C-gyraseB resulted in the generation of an A20 fragment of approximately 50 kDa”. For the same substance, the “cleavage of Ac-LSSR-AMC in vitro (fluorescence release)” value in data set [2] is recorded as “the recombinant MALT1 p20 fragment (Sun et al., 2004) efficiently cleaved the Ac-LSSR-AMC (see SEQ ID NO:1) substrate”. The “Ac-LSSR-AMC cleavage by recombinant MALT1” value in data set [3] and in data set [4] was “adding Z-LSSR-CHO (see SEQ ID NO:1) or Z-GASR-CHO (see SEQ ID NO:2) completely blocked the proteolytic activity of recombinant MALT1” in each case.

(Values after patent publication US8309523 (VIB VZW, dated 2012).)
